For data set [1], the target named is CSF BuChE (human (endogenous in CSF)) (UniProt P06276). Kind of data set: co-sedimentation.
The data set “co-sedimentation” concerns the molecule itself. Nature of the data set: co-sedimentation.

As usually defined, the stoichiometry N is a count of units in the complex or per binding partner. As to “CSF BuChE (from UniProt P06276 29-602) (enzyme)”, the stoichiometry N in data set [1] came out at 4.

B1: highly purified BuChE from human serum (enzyme)
chain: EDDIIIATKNGKVRGMNLTVFGGTVTAFLGIPYAQPPLGRLRFKKPQSLTKWSDIWNATKYANSCCQNIDQSFPGFHGSEMWNPNTDLSEDCLYLNVWIPAPKPKNATVLIWIYGGGFQTGTSSLHVYDGKFLARVERVIVVSMNYRVGALGFLALPGNPEAPGNMGLFDQQLALQWVQKNIAAFGGNPKSVTLFGESAGAASVSLHLLSPGSHSLFTRAILQSGSFNAPWAVTSLYEARNRTLNLAKLTGCSRENETEIIKCLRNKDPQEILLNEAFVVPYGTPLSVNFGPTVDGDFLTDMPDILLELGQFKKTQILVGVNKDEGTAFLVYGAPGFSKDNNSIITRKEFQEGLKIFFPGVSEFGKESILFHYTDWVDDQRPENYREALGDVVGDYNFICPALEFTKKFSEWGNNAFFYYFEHRSSKLPWPEWMGVMHGYEIEFVFGLPLERRDNYTKAEEILSRSIVKRWANFAKYGNPNETQNNSTSWPVFKSTEQKYLTLNTESTRIMTKLRAQQCRFWTSFFPKVLEMTGNIDEAEWEWKAGFHRWNNYMMDWKNQFNDYTSKKESCVGL
With B1, in the data set “co-sedimentation”, the “stoichiometry N” value amounted to 4.

The values are drawn from publication PMC4949388 (Brain, 2015).
